Results reported in patent US20240109955A1.
Read-outs that look alike come from different tables or passages of the source.

Assays:
Test in all cases: cell-based or functional assay
[1] = molecular target: SARS-CoV-2 spike (S) protein, Omicron variant BA.1 (SARS-CoV-2) (UniProt P0DTC2)
[2] = molecular target: SARS-CoV-2 spike (S) protein, Mu variant (B.1.621) (SARS-CoV-2) (UniProt P0DTC2)
[3] = molecular target: SARS-CoV-2 spike (S) protein, Omicron variant BA.2.12.1 (SARS-CoV-2) (UniProt P0DTC2)
[4] = molecular target: SARS-CoV-2 spike (S) protein, Omicron variant BA.4/5 (SARS-CoV-2) (UniProt P0DTC2)
[5] = molecular target: SARS-CoV-2 spike protein, Beta variant 1 (B.1.351.v1) (SARS-CoV-2)
[6] = molecular target: SARS-CoV-2 spike protein, Gamma variant (P.1) (SARS-CoV-2)
[7] = molecular target: SARS-CoV-2 Omicron BA.4.6 spike protein (R346T, F486V) (SARS-CoV-2) (UniProt P0DTC2)
[8] = molecular target: SARS-CoV-2 spike (S) protein, Omicron variant BA.2 (SARS-CoV-2) (UniProt P0DTC2)
[9] = molecular target: SARS-CoV-2 spike (S) protein, Iota variant (B.1.526) (SARS-CoV-2) (UniProt P0DTC2)
[10] = molecular target: SARS-CoV-2 spike (S) protein, Omicron variant BA1.1.529 (SARS-CoV-2) (UniProt P0DTC2)
[11] = molecular target: SARS-CoV-2 spike protein, Delta variant (B.1.617.2) (SARS-CoV-2)
[12] = molecular target: SARS-CoV-2 spike (S) protein, C.1.2 variant (SARS-CoV-2) (UniProt P0DTC2)
[13] = molecular target: SARS-CoV-2 spike (S) protein, Lambda variant (C.37) (SARS-CoV-2) (UniProt P0DTC2)
[14] = molecular target: SARS-CoV-2 spike protein, Alpha variant (B.1.1.7) (SARS-CoV-2)
[15] = molecular target: SARS-CoV-2 spike protein, Omicron variant (B.1.1.529) (SARS-CoV-2) (UniProt P0DTC2)
[16] = molecular target: SARS-CoV-2 spike protein, Omicron sublineage BA.1.1 (R346K) (SARS-CoV-2) (UniProt P0DTC2)
[17] = molecular target: SARS-CoV-2 spike (S) protein, Alpha variant (B.1.1.7) (SARS-CoV-2) (UniProt P0DTC2)
[18] = molecular target: SARS-CoV-2 spike (S) protein, Omicron sublineage BQ 1.1 (R346T, K444T, F486V) (SARS-CoV-2) (UniProt P0DTC2)
[19] = molecular target: SARS-CoV-2 spike (S) protein, Omicron sublineage BA.1.1 (R346K) (SARS-CoV-2) (UniProt P0DTC2)
[20] = molecular target: SARS-CoV-2 spike (S) protein, Omicron sublineage BF.7 (R346T, F486V) (SARS-CoV-2) (UniProt P0DTC2)
[21] = molecular target: SARS-CoV-2 spike (S) protein, Omicron sublineage BA.4.7 (R346S, F486V) (SARS-CoV-2) (UniProt P0DTC2)
[22] = molecular target: SARS-CoV-2 spike (S) protein, Omicron sublineage BA.4.6 (R346T, F486V) (SARS-CoV-2) (UniProt P0DTC2)
[23] = molecular target: SARS-CoV-2 spike protein, Omicron sublineage BA.1.1 (R346K) (SARS-CoV-2) (UniProt P0DTC2); remark: listed apart in the source
[24] = molecular target: SARS-CoV-2 spike protein, Omicron sublineage BF.7 (R346T, F486V) (SARS-CoV-2) (UniProt P0DTC2)
[25] = molecular target: SARS-CoV-2 spike protein, Omicron sublineage BA.4.6 (R346T, F486V) (SARS-CoV-2) (UniProt P0DTC2)
[26] = molecular target: SARS-CoV-2 spike protein, Omicron sublineage BQ.1.1 (R346T, K444T, F486V) (SARS-CoV-2) (UniProt P0DTC2)
[27] = molecular target: SARS-CoV-2 spike protein, Omicron sublineage BA.4.7 (R346S, F486V) (SARS-CoV-2) (UniProt P0DTC2)

MX492 (A19-46 x A23-58H/B1-182L) (bispecific antibody), sequence (chain): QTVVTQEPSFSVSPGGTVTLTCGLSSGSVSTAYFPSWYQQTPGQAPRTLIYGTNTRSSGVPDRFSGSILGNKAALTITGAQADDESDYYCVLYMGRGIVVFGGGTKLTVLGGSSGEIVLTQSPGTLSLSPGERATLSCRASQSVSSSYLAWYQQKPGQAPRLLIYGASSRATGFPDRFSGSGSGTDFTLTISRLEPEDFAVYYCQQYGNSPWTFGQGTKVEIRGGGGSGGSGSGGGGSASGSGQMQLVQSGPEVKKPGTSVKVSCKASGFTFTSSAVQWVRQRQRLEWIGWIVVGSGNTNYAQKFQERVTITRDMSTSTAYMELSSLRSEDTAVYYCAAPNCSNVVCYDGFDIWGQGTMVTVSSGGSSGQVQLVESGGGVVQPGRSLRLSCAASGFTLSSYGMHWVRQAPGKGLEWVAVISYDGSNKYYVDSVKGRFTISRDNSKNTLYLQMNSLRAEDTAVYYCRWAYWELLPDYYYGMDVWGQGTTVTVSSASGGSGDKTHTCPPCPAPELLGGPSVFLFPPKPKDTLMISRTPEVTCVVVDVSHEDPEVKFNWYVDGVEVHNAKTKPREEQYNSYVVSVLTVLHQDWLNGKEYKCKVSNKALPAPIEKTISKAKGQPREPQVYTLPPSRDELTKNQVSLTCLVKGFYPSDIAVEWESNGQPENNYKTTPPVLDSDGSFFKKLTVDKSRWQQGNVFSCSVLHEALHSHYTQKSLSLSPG
MX413 (A19-61 x A23-58H/B1-182L) (bispecific antibody), sequence (chain): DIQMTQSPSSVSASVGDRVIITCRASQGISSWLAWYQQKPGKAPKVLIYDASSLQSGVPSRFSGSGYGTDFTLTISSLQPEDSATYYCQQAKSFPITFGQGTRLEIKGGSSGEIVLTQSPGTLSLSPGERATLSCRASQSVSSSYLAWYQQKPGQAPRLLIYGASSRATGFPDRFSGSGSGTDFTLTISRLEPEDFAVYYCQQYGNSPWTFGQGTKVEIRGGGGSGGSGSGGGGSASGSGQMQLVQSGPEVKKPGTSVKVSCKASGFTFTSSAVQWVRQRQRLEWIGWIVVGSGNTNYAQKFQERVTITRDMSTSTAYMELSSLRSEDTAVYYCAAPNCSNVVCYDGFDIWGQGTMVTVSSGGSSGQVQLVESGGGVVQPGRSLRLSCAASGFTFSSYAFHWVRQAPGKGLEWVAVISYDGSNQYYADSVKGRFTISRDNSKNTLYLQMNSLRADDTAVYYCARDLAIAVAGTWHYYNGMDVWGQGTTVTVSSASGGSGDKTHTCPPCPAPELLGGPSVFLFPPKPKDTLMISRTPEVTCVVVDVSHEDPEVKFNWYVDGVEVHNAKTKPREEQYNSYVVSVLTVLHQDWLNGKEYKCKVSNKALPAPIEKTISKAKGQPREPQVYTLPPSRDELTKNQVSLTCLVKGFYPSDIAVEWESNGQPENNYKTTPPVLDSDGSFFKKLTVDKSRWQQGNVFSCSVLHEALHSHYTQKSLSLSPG

Substance: A19-61.1 (antibody)
- pseudovirus neutralization IC50 (nM (inferred)) [1]: > 66.7
- pseudovirus neutralization IC80 (nM (inferred)) [1]: > 66.7
- pseudovirus neutralization IC50 (nM (inferred)) [2]: 0.264
- pseudovirus neutralization IC80 (nM (inferred)) [2]: 0.43
- pseudovirus neutralization IC50 (nM (inferred)) [3]: 0.11
- pseudovirus neutralization IC80 (nM (inferred)) [3]: 0.298
- pseudovirus neutralization IC50 (nM (inferred)) [4]: 0.128
- pseudovirus neutralization IC80 (nM (inferred)) [4]: 0.322
- IC50, pseudovirus neutralization [5]: 0.0686 nM
- IC80, pseudovirus neutralization [5]: 0.113 nM
- IC50, pseudovirus neutralization [6]: 0.135 nM
- IC80, pseudovirus neutralization [6]: 0.288 nM
- IC50, pseudovirus neutralization [7]: 540 nM
- IC80, pseudovirus neutralization [7]: 2170 nM
- pseudovirus neutralization IC50 (nM (inferred)) [8]: 0.0607
- pseudovirus neutralization IC80 (nM (inferred)) [8]: 0.17
- pseudovirus neutralization IC50 (nM (inferred)) [9]: 0.0418
- pseudovirus neutralization IC80 (nM (inferred)) [9]: 0.0836
- pseudovirus neutralization IC50 (nM (inferred)) [10]: > 66.7
- pseudovirus neutralization IC80 (nM (inferred)) [10]: > 66.7
- IC50, pseudovirus neutralization [11]: 0.209 nM
- IC80, pseudovirus neutralization [11]: 0.292 nM
- pseudovirus neutralization IC50 (nM (inferred)) [12]: 8.43
- pseudovirus neutralization IC50 (nM (inferred)) [13]: 0.11
- pseudovirus neutralization IC80 (nM (inferred)) [13]: 0.186
- IC50, pseudovirus neutralization [14]: 0.175 nM
- IC80, pseudovirus neutralization [14]: 0.325 nM

Substance: A23_58.1 (antibody)
- pseudovirus neutralization IC50 (nM (inferred)) [1]: 0.853
- pseudovirus neutralization IC80 (nM (inferred)) [1]: 4.24
- pseudovirus neutralization IC50 (nM (inferred)) [2]: 0.124
- pseudovirus neutralization IC80 (nM (inferred)) [2]: 0.26
- pseudovirus neutralization IC50 (nM (inferred)) [3]: 0.647
- pseudovirus neutralization IC80 (nM (inferred)) [3]: 4.96
- pseudovirus neutralization IC50 (nM (inferred)) [4]: > 66.7
- pseudovirus neutralization IC80 (nM (inferred)) [4]: > 66.7
- IC50, pseudovirus neutralization [5]: 0.123 nM
- IC80, pseudovirus neutralization [5]: 0.339 nM
- IC50, pseudovirus neutralization [6]: 0.0097 nM
- IC80, pseudovirus neutralization [6]: 0.0437 nM
- pseudovirus neutralization IC50 (nM (inferred)) [8]: 1.72
- pseudovirus neutralization IC80 (nM (inferred)) [8]: 6.12
- IC50, pseudovirus neutralization [11]: 0.0133 nM
- IC80, pseudovirus neutralization [11]: 0.0358 nM
- pseudovirus neutralization IC50 (nM (inferred)) [12]: 0.0287
- pseudovirus neutralization IC80 (nM (inferred)) [12]: 0.0656
- IC50, pseudovirus neutralization [14]: 0.0329 nM
- IC80, pseudovirus neutralization [14]: 0.104 nM

Substance: B1-182.1 (antibody)
- pseudovirus neutralization IC50 (nM (inferred)) [1]: 1.03
- pseudovirus neutralization IC80 (nM (inferred)) [1]: 4.44
- pseudovirus neutralization IC50 (nM (inferred)) [2]: 0.0695
- pseudovirus neutralization IC80 (nM (inferred)) [2]: 0.219
- pseudovirus neutralization IC50 (nM (inferred)) [3]: 0.739
- pseudovirus neutralization IC80 (nM (inferred)) [3]: 5.92
- pseudovirus neutralization IC50 (nM (inferred)) [4]: > 66.7
- pseudovirus neutralization IC80 (nM (inferred)) [4]: > 66.7
- IC50, pseudovirus neutralization [15]: 401 nM
- IC80, pseudovirus neutralization [15]: 1020 nM
- IC50, pseudovirus neutralization [5]: 0.0357 nM
- IC80, pseudovirus neutralization [5]: 0.139 nM
- IC50, pseudovirus neutralization [6]: 0.0182 nM
- IC80, pseudovirus neutralization [6]: 0.0429 nM
- IC50, pseudovirus neutralization [16]: 213 nM
- IC80, pseudovirus neutralization [16]: 1300 nM
- pseudovirus neutralization IC50 (nM (inferred)) [8]: 2.12
- pseudovirus neutralization IC80 (nM (inferred)) [8]: 8.5
- pseudovirus neutralization IC50 (nM (inferred)) [9]: 0.0639
- pseudovirus neutralization IC80 (nM (inferred)) [9]: 0.183
- pseudovirus neutralization IC50 (nM (inferred)) [10]: 2.55
- pseudovirus neutralization IC80 (nM (inferred)) [10]: 6.47
- IC50, pseudovirus neutralization [11]: 0.0099 nM
- IC80, pseudovirus neutralization [11]: 0.0254 nM
- pseudovirus neutralization IC50 (nM (inferred)) [12]: 0.0549
- pseudovirus neutralization IC80 (nM (inferred)) [12]: 0.11
- pseudovirus neutralization IC50 (nM (inferred)) [13]: 0.0049
- pseudovirus neutralization IC80 (nM (inferred)) [13]: 0.015
- IC50, pseudovirus neutralization [14]: 0.0262 nM
- IC80, pseudovirus neutralization [14]: 0.0844 nM

Substance: LY-CoV555 (antibody)
- pseudovirus neutralization IC50 [1]: > 67 nM
- pseudovirus neutralization IC80 [1]: > 67 nM
- pseudovirus neutralization IC50 [17]: 0.0145 nM
- pseudovirus neutralization IC80 [17]: 0.0361 nM
- pseudovirus neutralization IC50 [8]: > 67 nM
- pseudovirus neutralization IC80 [8]: > 67 nM

Substance: MX413 (A19-61 x A23-58H/B1-182L) (bispecific antibody)
- IC50, pseudovirus neutralization [18]: > 10000 nM
- IC80, pseudovirus neutralization [18]: > 10000 nM
- IC50, pseudovirus neutralization [19]: 2.24 nM
- IC80, pseudovirus neutralization [19]: 10.5 nM
- IC50, pseudovirus neutralization [7]: 10 nM
- IC80, pseudovirus neutralization [7]: 25 nM
- IC50, pseudovirus neutralization [20]: 28.1 nM
- IC80, pseudovirus neutralization [20]: 177 nM
- IC50, pseudovirus neutralization [21]: 77.9 nM
- IC80, pseudovirus neutralization [21]: 126 nM
- IC50, pseudovirus neutralization [22]: 56 nM
- IC80, pseudovirus neutralization [22]: 155 nM

Substance: MX492 (A19-46 x A23-58H/B1-182L) (bispecific antibody)
- IC50, pseudovirus neutralization [18]: > 10000 nM
- IC80, pseudovirus neutralization [18]: > 10000 nM
- IC50, pseudovirus neutralization [19]: 8.77 nM
- IC80, pseudovirus neutralization [19]: 68 nM
- IC50, pseudovirus neutralization [7]: > 10000 nM
- IC80, pseudovirus neutralization [7]: > 10000 nM
- IC50, pseudovirus neutralization [20]: > 10000 nM
- IC80, pseudovirus neutralization [20]: > 10000 nM
- IC50, pseudovirus neutralization [21]: 13.3 nM
- IC80, pseudovirus neutralization [21]: 154 nM
- IC50, pseudovirus neutralization [22]: 21.4 nM
- IC80, pseudovirus neutralization [22]: 24.5 nM

Substance: MX500 (A19-46 × A23-58H/B1-182L/A23-58H/B1-182L × A19-61)
- IC50, pseudovirus neutralization [1]: 0.0639 nM
- IC80, pseudovirus neutralization [1]: 0.204 nM
- IC50, pseudovirus neutralization [3]: 0.0655 nM
- IC80, pseudovirus neutralization [3]: 0.145 nM
- IC50, pseudovirus neutralization [8]: 0.0151 nM
- IC80, pseudovirus neutralization [8]: 0.0503 nM
- IC50, pseudovirus neutralization [23]: 45.1 nM
- IC80, pseudovirus neutralization [23]: 83.4 nM
- IC50, pseudovirus neutralization [24]: > 10000 nM
- IC80, pseudovirus neutralization [24]: > 10000 nM
- IC50, pseudovirus neutralization [25]: > 10000 nM
- IC80, pseudovirus neutralization [25]: > 10000 nM
- IC50, pseudovirus neutralization [26]: > 10000 nM
- IC80, pseudovirus neutralization [26]: > 10000 nM
- IC50, pseudovirus neutralization [27]: > 10000 nM
- IC80, pseudovirus neutralization [27]: > 10000 nM

Substance: MX501 (A19-46 × A23-58H/B1-182L/A19-61 × A23-58H/B1-182L)
- IC50, pseudovirus neutralization [1]: 0.0285 nM
- IC80, pseudovirus neutralization [1]: 0.0876 nM
- IC50, pseudovirus neutralization [3]: 0.0405 nM
- IC80, pseudovirus neutralization [3]: 0.0927 nM
- IC50, pseudovirus neutralization [8]: 0.0097 nM
- IC80, pseudovirus neutralization [8]: 0.025 nM
- IC50, pseudovirus neutralization [23]: 20.5 nM
- IC80, pseudovirus neutralization [23]: 77.2 nM
- IC50, pseudovirus neutralization [24]: > 10000 nM
- IC80, pseudovirus neutralization [24]: > 10000 nM
- IC50, pseudovirus neutralization [25]: > 10000 nM
- IC80, pseudovirus neutralization [25]: > 10000 nM
- IC50, pseudovirus neutralization [26]: > 10000 nM
- IC80, pseudovirus neutralization [26]: > 10000 nM
- IC50, pseudovirus neutralization [27]: > 10000 nM
- IC80, pseudovirus neutralization [27]: > 10000 nM

Substance: bebtelovimab (antibody)
- IC50, pseudovirus neutralization [15]: 0.32 nM
- IC80, pseudovirus neutralization [15]: 15.6 nM
- IC80, pseudovirus neutralization [7]: 1 nM
- IC50, pseudovirus neutralization [16]: 26.4 nM
- IC80, pseudovirus neutralization [16]: 65.1 nM
- IC50, pseudovirus neutralization [23]: 26.4 nM
- IC80, pseudovirus neutralization [23]: 65.1 nM
- IC50, pseudovirus neutralization [24]: 8.51 nM
- IC80, pseudovirus neutralization [24]: 24.5 nM
- IC50, pseudovirus neutralization [25]: 11.5 nM
- IC80, pseudovirus neutralization [25]: 28.1 nM
- IC50, pseudovirus neutralization [26]: > 10000 nM
- IC80, pseudovirus neutralization [26]: > 10000 nM
- IC50, pseudovirus neutralization [27]: 11.4 nM
- IC80, pseudovirus neutralization [27]: 22.4 nM
